B1: anti-VEGF vNAR V13 (other, not shown: small tags and cut ends)
chain: ASLDQTPRTATRETGESLSINCVLTDTSHILFGTKWLWNNPGSTDWESITIGGRYAESVNNQAKSFSLQIKDLTVEDSGTYYCKAQTIGRRKNLLPRPLVNGIAAMGYSSSDYDGAGTVLTVN
B2: anti-VEGF vNAR V32R (VNAR, not shown: small tags and cut ends)
chain: AASLDQTPRTATRETGESLTINCVFTDSSCGLCGTSWFRNNPGSTDWERITIGGRYVESVNKGAKSFSLQIKDLTVEDSVTYYCKAQGHRYFSKVCELRCPSYYYDGAGTVLTVN
B3: anti-VEGF vNAR V19 (VNAR, not shown: small tags and cut ends)
VNAR: AQRVEQTPRTATKETGESLTINCVLRDASFELKDTGWYRTKLGSTNEQSISIGGRYVETVNKGSKSFSLRISDLRVEDSGTYKCQAFYSLPLGDYNYSLLFRGEKGAGTVLTVN

Key:
[1] = biological target: T1, VEGF (4 ng/mL, added in the in vitro angiogenesis assay) (UniProt P15692-4 27-191, limits assumed); assay: cell-based or functional assay
T1 sequence (P15692 other isoform, or with tags, fused parts or gaps limits assumed): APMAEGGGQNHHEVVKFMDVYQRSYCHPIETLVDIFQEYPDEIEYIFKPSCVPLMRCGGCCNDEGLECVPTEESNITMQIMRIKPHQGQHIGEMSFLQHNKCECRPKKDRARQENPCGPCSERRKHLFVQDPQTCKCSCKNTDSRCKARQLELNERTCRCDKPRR

[2] = biological target: T1, VEGF (4 ng/mL, added in the in vitro …); assay: cell-based or functional assay; remark: listed apart in the source

| Binder | IC50, average value (in vitro angiogenesis, HUVEC/NHDF co-culture) [1] [µg/mL] | IC50, branching points (in vitro angiogenesis, HUVEC/NHDF co-culture) [1] [µg/mL] | IC50, length of the tubes (in vitro angiogenesis, HUVEC/NHDF co-culture) [1] [µg/mL] | fold less antibody concentration than V13 for an inhibitory effect on angiogenesis [2] [times less] |
| --- | --- | --- | --- | --- |
| B1 | 388 | 340 | 436 | – |
| B2 | 23.4 | 19.3 | 27.6 | ≤ 12 |
| B3 | 30.2 | 24.7 | 35.8 | ≤ 12 |

— patent US20170137504A1 (TERACLON IDF S L, published 2017)
